The values below come from patent US20150344570A1 (published 2015).

Sequences and labels used below:
B1: GpH7-B3 variant P271_01G/GpL16-k0 (antibody, human IgG1, kappa)
heavy: not shown
light: DIVMTQSPLSLPVTPGEPASISCQASESLVHSNRNTYLHWYLQKPGQSPQLLIYKVSNRFSGVPDRFSGSGSGTDFTLKISRVEAEDVGVYYCSQNTHVPPTFGQGTKVEIERTVAAPSVFIFPPSDEQLKSGTASVVCLLNNFYPREAKVQWKVDNALQSGNSQESVTEQDSKDSTYSLSSTLTLSKADYEKHKVYACEVTHQGLSSPVTKSFNRGEC
notes: both H chains altered; also called Ho Ab P271_01G
B2: GpH7-B3 variant T335_20W/GpL16-k0 (antibody, human IgG1, kappa)
heavy: not shown
light: DIVMTQSPLSLPVTPGEPASISCQASESLVHSNRNTYLHWYLQKPGQSPQLLIYKVSNRFSGVPDRFSGSGSGTDFTLKISRVEAEDVGVYYCSQNTHVPPTFGQGTKVEIERTVAAPSVFIFPPSDEQLKSGTASVVCLLNNFYPREAKVQWKVDNALQSGNSQESVTEQDSKDSTYSLSSTLTLSKADYEKHKVYACEVTHQGLSSPVTKSFNRGEC
notes: both H chains altered; also called Ho Ab T335_20W
B3: GpH7-B3 variant T335_16H/GpL16-k0 (antibody, human IgG1, kappa)
heavy: not shown
light: DIVMTQSPLSLPVTPGEPASISCQASESLVHSNRNTYLHWYLQKPGQSPQLLIYKVSNRFSGVPDRFSGSGSGTDFTLKISRVEAEDVGVYYCSQNTHVPPTFGQGTKVEIERTVAAPSVFIFPPSDEQLKSGTASVVCLLNNFYPREAKVQWKVDNALQSGNSQESVTEQDSKDSTYSLSSTLTLSKADYEKHKVYACEVTHQGLSSPVTKSFNRGEC
notes: both H chains altered; also called Ho Ab T335_16H
B4: GpH7-B3 variant H268_02A/GpL16-k0 (antibody, human IgG1, kappa)
heavy: not shown
light: DIVMTQSPLSLPVTPGEPASISCQASESLVHSNRNTYLHWYLQKPGQSPQLLIYKVSNRFSGVPDRFSGSGSGTDFTLKISRVEAEDVGVYYCSQNTHVPPTFGQGTKVEIERTVAAPSVFIFPPSDEQLKSGTASVVCLLNNFYPREAKVQWKVDNALQSGNSQESVTEQDSKDSTYSLSSTLTLSKADYEKHKVYACEVTHQGLSSPVTKSFNRGEC
notes: both H chains altered; also called Ho Ab H268_02A
B5: GpH7-B3 variant I332_01G/GpL16-k0 (antibody, human IgG1, kappa)
heavy: not shown
light: DIVMTQSPLSLPVTPGEPASISCQASESLVHSNRNTYLHWYLQKPGQSPQLLIYKVSNRFSGVPDRFSGSGSGTDFTLKISRVEAEDVGVYYCSQNTHVPPTFGQGTKVEIERTVAAPSVFIFPPSDEQLKSGTASVVCLLNNFYPREAKVQWKVDNALQSGNSQESVTEQDSKDSTYSLSSTLTLSKADYEKHKVYACEVTHQGLSSPVTKSFNRGEC
notes: both H chains altered; also called Ho Ab I332_01G
B6: GpH7-B3 variant I336_03V/GpL16-k0 (antibody, human IgG1, kappa)
heavy: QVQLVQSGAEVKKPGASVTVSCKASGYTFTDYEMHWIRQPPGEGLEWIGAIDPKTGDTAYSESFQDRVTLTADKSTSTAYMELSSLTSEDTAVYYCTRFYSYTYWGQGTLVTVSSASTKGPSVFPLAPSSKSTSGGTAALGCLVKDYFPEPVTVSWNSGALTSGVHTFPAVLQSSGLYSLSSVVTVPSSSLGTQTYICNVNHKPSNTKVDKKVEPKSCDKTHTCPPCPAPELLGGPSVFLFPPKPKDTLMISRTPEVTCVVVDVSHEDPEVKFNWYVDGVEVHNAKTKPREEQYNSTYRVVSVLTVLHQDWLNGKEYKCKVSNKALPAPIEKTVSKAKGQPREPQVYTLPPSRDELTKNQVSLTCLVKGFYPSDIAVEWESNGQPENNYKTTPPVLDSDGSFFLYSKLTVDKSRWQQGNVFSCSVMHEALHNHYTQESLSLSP
light: DIVMTQSPLSLPVTPGEPASISCQASESLVHSNRNTYLHWYLQKPGQSPQLLIYKVSNRFSGVPDRFSGSGSGTDFTLKISRVEAEDVGVYYCSQNTHVPPTFGQGTKVEIERTVAAPSVFIFPPSDEQLKSGTASVVCLLNNFYPREAKVQWKVDNALQSGNSQESVTEQDSKDSTYSLSSTLTLSKADYEKHKVYACEVTHQGLSSPVTKSFNRGEC
notes: both H chains altered; also called Ho Ab I336_03V
B7: GpH7-B3 variant E333_09D/GpL16-k0 (antibody, human IgG1, kappa)
heavy: not shown
light: DIVMTQSPLSLPVTPGEPASISCQASESLVHSNRNTYLHWYLQKPGQSPQLLIYKVSNRFSGVPDRFSGSGSGTDFTLKISRVEAEDVGVYYCSQNTHVPPTFGQGTKVEIERTVAAPSVFIFPPSDEQLKSGTASVVCLLNNFYPREAKVQWKVDNALQSGNSQESVTEQDSKDSTYSLSSTLTLSKADYEKHKVYACEVTHQGLSSPVTKSFNRGEC
notes: both H chains altered; also called Ho Ab E333_09D
B8: GpH7-B3 variant I336_18N/GpL16-k0 (antibody, human IgG1, kappa)
heavy: not shown
light: DIVMTQSPLSLPVTPGEPASISCQASESLVHSNRNTYLHWYLQKPGQSPQLLIYKVSNRFSGVPDRFSGSGSGTDFTLKISRVEAEDVGVYYCSQNTHVPPTFGQGTKVEIERTVAAPSVFIFPPSDEQLKSGTASVVCLLNNFYPREAKVQWKVDNALQSGNSQESVTEQDSKDSTYSLSSTLTLSKADYEKHKVYACEVTHQGLSSPVTKSFNRGEC
notes: both H chains altered; also called Ho Ab I336_18N
B9: GpH7-B3 variant T335_19Q/GpL16-k0 (antibody, human IgG1, kappa)
heavy: not shown
light: DIVMTQSPLSLPVTPGEPASISCQASESLVHSNRNTYLHWYLQKPGQSPQLLIYKVSNRFSGVPDRFSGSGSGTDFTLKISRVEAEDVGVYYCSQNTHVPPTFGQGTKVEIERTVAAPSVFIFPPSDEQLKSGTASVVCLLNNFYPREAKVQWKVDNALQSGNSQESVTEQDSKDSTYSLSSTLTLSKADYEKHKVYACEVTHQGLSSPVTKSFNRGEC
notes: both H chains altered; also called Ho Ab T335_19Q
B10: GpH7-B3 variant K326_08L/GpL16-k0 (antibody, human IgG1, kappa)
heavy: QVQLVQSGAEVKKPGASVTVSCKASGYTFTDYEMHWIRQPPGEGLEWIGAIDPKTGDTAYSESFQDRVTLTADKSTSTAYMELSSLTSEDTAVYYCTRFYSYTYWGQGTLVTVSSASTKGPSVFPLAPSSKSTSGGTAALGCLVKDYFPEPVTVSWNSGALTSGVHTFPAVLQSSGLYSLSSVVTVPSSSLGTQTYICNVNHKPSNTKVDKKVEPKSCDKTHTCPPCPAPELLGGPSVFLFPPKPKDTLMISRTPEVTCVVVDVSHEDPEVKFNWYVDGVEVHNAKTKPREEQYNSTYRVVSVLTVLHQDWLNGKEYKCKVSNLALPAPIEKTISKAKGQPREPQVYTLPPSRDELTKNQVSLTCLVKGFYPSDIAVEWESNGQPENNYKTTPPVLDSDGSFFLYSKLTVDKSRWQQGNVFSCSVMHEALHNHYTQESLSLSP
light: DIVMTQSPLSLPVTPGEPASISCQASESLVHSNRNTYLHWYLQKPGQSPQLLIYKVSNRFSGVPDRFSGSGSGTDFTLKISRVEAEDVGVYYCSQNTHVPPTFGQGTKVEIERTVAAPSVFIFPPSDEQLKSGTASVVCLLNNFYPREAKVQWKVDNALQSGNSQESVTEQDSKDSTYSLSSTLTLSKADYEKHKVYACEVTHQGLSSPVTKSFNRGEC
notes: both H chains altered; also called Ho Ab K326_08L
B11: GpH7-B3 variant T335_13S/GpL16-k0 (antibody, human IgG1, kappa)
heavy: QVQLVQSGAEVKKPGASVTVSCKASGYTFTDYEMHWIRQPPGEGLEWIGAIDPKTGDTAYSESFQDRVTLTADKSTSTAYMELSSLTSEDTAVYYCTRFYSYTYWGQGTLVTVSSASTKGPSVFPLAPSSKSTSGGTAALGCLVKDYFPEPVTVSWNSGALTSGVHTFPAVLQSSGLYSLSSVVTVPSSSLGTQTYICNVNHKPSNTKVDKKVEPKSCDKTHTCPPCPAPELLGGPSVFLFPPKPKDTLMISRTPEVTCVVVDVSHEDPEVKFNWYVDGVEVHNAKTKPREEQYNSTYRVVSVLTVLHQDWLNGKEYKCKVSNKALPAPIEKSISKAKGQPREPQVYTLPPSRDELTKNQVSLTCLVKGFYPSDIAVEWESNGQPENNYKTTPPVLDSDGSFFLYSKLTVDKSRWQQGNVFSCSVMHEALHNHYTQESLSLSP
light: DIVMTQSPLSLPVTPGEPASISCQASESLVHSNRNTYLHWYLQKPGQSPQLLIYKVSNRFSGVPDRFSGSGSGTDFTLKISRVEAEDVGVYYCSQNTHVPPTFGQGTKVEIERTVAAPSVFIFPPSDEQLKSGTASVVCLLNNFYPREAKVQWKVDNALQSGNSQESVTEQDSKDSTYSLSSTLTLSKADYEKHKVYACEVTHQGLSSPVTKSFNRGEC
notes: both H chains altered; also called Ho Ab T335_13S
B12: GpH7-B3 variant S337_15Y/GpL16-k0 (antibody, human IgG1, kappa)
heavy: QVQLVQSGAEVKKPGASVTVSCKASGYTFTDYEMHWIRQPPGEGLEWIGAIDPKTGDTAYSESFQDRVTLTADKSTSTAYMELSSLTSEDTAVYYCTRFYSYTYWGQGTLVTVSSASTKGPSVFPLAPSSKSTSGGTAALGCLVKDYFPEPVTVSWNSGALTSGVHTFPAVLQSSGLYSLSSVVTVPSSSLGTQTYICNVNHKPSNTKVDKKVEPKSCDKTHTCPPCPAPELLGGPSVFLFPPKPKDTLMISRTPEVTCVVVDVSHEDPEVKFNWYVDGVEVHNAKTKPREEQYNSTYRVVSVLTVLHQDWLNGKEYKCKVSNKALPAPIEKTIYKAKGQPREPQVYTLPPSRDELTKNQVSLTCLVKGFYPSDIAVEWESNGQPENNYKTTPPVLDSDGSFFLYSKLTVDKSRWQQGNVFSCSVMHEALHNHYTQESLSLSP
light: DIVMTQSPLSLPVTPGEPASISCQASESLVHSNRNTYLHWYLQKPGQSPQLLIYKVSNRFSGVPDRFSGSGSGTDFTLKISRVEAEDVGVYYCSQNTHVPPTFGQGTKVEIERTVAAPSVFIFPPSDEQLKSGTASVVCLLNNFYPREAKVQWKVDNALQSGNSQESVTEQDSKDSTYSLSSTLTLSKADYEKHKVYACEVTHQGLSSPVTKSFNRGEC
notes: both H chains altered; also called Ho Ab S337_15Y
B13: GpH7-B3 variant S337_14T/GpL16-k0 (antibody, human IgG1, kappa)
heavy: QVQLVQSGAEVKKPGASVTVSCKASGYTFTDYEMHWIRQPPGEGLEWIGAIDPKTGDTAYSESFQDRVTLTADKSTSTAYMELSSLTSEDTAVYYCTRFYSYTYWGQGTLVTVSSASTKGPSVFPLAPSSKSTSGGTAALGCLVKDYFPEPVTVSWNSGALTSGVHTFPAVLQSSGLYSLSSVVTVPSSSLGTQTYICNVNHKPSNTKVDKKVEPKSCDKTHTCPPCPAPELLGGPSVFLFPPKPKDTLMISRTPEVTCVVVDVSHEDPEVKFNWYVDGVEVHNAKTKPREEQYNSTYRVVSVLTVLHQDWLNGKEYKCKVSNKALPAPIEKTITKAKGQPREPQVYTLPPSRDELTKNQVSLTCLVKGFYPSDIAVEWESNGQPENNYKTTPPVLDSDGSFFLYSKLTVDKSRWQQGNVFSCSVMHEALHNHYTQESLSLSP
light: DIVMTQSPLSLPVTPGEPASISCQASESLVHSNRNTYLHWYLQKPGQSPQLLIYKVSNRFSGVPDRFSGSGSGTDFTLKISRVEAEDVGVYYCSQNTHVPPTFGQGTKVEIERTVAAPSVFIFPPSDEQLKSGTASVVCLLNNFYPREAKVQWKVDNALQSGNSQESVTEQDSKDSTYSLSSTLTLSKADYEKHKVYACEVTHQGLSSPVTKSFNRGEC
notes: both H chains altered; also called Ho Ab S337_14T
B14: GpH7-B3 variant S337_04F/GpL16-k0 (antibody, human IgG1, kappa)
heavy: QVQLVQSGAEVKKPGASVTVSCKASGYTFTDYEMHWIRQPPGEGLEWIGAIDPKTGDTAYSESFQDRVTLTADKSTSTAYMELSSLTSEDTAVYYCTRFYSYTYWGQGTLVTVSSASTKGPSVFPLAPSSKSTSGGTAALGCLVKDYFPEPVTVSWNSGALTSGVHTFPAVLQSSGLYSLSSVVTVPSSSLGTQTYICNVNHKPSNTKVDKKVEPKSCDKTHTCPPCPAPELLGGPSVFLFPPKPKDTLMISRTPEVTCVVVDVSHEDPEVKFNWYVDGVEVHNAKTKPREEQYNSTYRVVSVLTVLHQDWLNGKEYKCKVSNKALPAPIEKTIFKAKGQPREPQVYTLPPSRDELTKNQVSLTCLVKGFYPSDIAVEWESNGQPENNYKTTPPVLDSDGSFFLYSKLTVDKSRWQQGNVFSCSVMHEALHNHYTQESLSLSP
light: DIVMTQSPLSLPVTPGEPASISCQASESLVHSNRNTYLHWYLQKPGQSPQLLIYKVSNRFSGVPDRFSGSGSGTDFTLKISRVEAEDVGVYYCSQNTHVPPTFGQGTKVEIERTVAAPSVFIFPPSDEQLKSGTASVVCLLNNFYPREAKVQWKVDNALQSGNSQESVTEQDSKDSTYSLSSTLTLSKADYEKHKVYACEVTHQGLSSPVTKSFNRGEC
notes: both H chains altered; also called Ho Ab S337_04F
B15: GpH7-B3 variant V266_08L/GpL16-k0 (antibody, human IgG1, kappa)
heavy: not shown
light: DIVMTQSPLSLPVTPGEPASISCQASESLVHSNRNTYLHWYLQKPGQSPQLLIYKVSNRFSGVPDRFSGSGSGTDFTLKISRVEAEDVGVYYCSQNTHVPPTFGQGTKVEIERTVAAPSVFIFPPSDEQLKSGTASVVCLLNNFYPREAKVQWKVDNALQSGNSQESVTEQDSKDSTYSLSSTLTLSKADYEKHKVYACEVTHQGLSSPVTKSFNRGEC
notes: both H chains altered; also called Ho Ab V266_08L
B16: GpH7-B3 variant K326_07I/GpL16-k0 (antibody, human IgG1, kappa)
heavy: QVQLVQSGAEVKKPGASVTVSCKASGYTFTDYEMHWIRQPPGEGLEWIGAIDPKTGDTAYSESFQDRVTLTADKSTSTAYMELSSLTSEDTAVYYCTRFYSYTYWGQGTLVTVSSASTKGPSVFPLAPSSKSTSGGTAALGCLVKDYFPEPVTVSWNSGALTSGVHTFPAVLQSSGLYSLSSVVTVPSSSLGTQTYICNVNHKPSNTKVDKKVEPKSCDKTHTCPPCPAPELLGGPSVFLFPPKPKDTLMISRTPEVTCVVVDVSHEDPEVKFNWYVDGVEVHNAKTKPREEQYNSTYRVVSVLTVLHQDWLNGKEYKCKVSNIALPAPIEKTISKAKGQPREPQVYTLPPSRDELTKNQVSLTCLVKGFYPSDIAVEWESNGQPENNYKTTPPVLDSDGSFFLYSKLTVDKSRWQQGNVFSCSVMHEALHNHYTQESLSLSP
light: DIVMTQSPLSLPVTPGEPASISCQASESLVHSNRNTYLHWYLQKPGQSPQLLIYKVSNRFSGVPDRFSGSGSGTDFTLKISRVEAEDVGVYYCSQNTHVPPTFGQGTKVEIERTVAAPSVFIFPPSDEQLKSGTASVVCLLNNFYPREAKVQWKVDNALQSGNSQESVTEQDSKDSTYSLSSTLTLSKADYEKHKVYACEVTHQGLSSPVTKSFNRGEC
notes: both H chains altered; also called Ho Ab K326_07I
B17: GpH7-B3 variant S337_20W/GpL16-k0 (antibody, human IgG1, kappa)
heavy: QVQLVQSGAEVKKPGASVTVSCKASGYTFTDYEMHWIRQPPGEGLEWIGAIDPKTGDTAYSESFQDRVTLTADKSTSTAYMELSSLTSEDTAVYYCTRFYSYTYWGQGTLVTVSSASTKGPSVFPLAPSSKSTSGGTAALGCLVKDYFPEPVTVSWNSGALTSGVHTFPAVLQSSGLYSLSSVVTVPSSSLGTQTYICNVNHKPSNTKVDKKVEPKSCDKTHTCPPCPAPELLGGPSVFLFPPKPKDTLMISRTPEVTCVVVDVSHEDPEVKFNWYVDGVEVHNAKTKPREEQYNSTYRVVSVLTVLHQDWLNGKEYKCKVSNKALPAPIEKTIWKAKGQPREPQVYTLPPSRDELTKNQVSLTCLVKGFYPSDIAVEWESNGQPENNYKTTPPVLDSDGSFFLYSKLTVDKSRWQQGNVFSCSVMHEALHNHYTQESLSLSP
light: DIVMTQSPLSLPVTPGEPASISCQASESLVHSNRNTYLHWYLQKPGQSPQLLIYKVSNRFSGVPDRFSGSGSGTDFTLKISRVEAEDVGVYYCSQNTHVPPTFGQGTKVEIERTVAAPSVFIFPPSDEQLKSGTASVVCLLNNFYPREAKVQWKVDNALQSGNSQESVTEQDSKDSTYSLSSTLTLSKADYEKHKVYACEVTHQGLSSPVTKSFNRGEC
notes: both H chains altered; also called Ho Ab S337_20W
B18: GpH7-B3 variant T335_15Y/GpL16-k0 (antibody, human IgG1, kappa)
heavy: not shown
light: DIVMTQSPLSLPVTPGEPASISCQASESLVHSNRNTYLHWYLQKPGQSPQLLIYKVSNRFSGVPDRFSGSGSGTDFTLKISRVEAEDVGVYYCSQNTHVPPTFGQGTKVEIERTVAAPSVFIFPPSDEQLKSGTASVVCLLNNFYPREAKVQWKVDNALQSGNSQESVTEQDSKDSTYSLSSTLTLSKADYEKHKVYACEVTHQGLSSPVTKSFNRGEC
notes: both H chains altered; also called Ho Ab T335_15Y
B19: GpH7-B3 variant I336_02A/GpL16-k0 (antibody, human IgG1, kappa)
heavy: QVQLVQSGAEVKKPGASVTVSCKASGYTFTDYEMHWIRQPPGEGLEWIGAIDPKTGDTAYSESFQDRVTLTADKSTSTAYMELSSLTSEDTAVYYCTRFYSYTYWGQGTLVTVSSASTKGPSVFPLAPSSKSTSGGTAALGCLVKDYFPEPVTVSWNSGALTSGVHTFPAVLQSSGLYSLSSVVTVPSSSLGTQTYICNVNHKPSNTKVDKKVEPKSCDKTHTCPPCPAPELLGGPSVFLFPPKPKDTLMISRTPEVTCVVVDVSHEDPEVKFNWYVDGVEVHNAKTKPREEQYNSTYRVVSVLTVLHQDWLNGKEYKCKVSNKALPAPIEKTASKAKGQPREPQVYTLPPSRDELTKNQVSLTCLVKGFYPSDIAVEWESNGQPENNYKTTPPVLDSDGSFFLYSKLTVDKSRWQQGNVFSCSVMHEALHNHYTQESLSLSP
light: DIVMTQSPLSLPVTPGEPASISCQASESLVHSNRNTYLHWYLQKPGQSPQLLIYKVSNRFSGVPDRFSGSGSGTDFTLKISRVEAEDVGVYYCSQNTHVPPTFGQGTKVEIERTVAAPSVFIFPPSDEQLKSGTASVVCLLNNFYPREAKVQWKVDNALQSGNSQESVTEQDSKDSTYSLSSTLTLSKADYEKHKVYACEVTHQGLSSPVTKSFNRGEC
notes: both H chains altered; also called Ho Ab I336_02A
B20: GpH7-B3 variant I336_06M/GpL16-k0 (antibody, human IgG1, kappa)
heavy: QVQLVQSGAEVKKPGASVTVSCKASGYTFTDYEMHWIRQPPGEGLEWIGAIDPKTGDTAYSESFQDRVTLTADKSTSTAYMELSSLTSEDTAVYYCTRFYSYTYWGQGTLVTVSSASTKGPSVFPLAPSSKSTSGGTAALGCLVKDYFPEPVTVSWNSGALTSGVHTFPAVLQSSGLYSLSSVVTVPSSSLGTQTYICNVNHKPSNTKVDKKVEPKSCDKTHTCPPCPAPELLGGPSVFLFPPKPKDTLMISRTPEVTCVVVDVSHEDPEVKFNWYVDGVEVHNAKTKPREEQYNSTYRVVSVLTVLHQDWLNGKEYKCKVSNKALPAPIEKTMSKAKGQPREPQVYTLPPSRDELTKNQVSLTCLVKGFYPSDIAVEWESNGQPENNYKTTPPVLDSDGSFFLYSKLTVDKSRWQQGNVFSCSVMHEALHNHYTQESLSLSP
light: DIVMTQSPLSLPVTPGEPASISCQASESLVHSNRNTYLHWYLQKPGQSPQLLIYKVSNRFSGVPDRFSGSGSGTDFTLKISRVEAEDVGVYYCSQNTHVPPTFGQGTKVEIERTVAAPSVFIFPPSDEQLKSGTASVVCLLNNFYPREAKVQWKVDNALQSGNSQESVTEQDSKDSTYSLSSTLTLSKADYEKHKVYACEVTHQGLSSPVTKSFNRGEC
notes: both H chains altered; also called Ho Ab I336_06M
B21: GpH7-B3 variant K334_01G/GpL16-k0 (antibody, human IgG1, kappa)
heavy: not shown
light: DIVMTQSPLSLPVTPGEPASISCQASESLVHSNRNTYLHWYLQKPGQSPQLLIYKVSNRFSGVPDRFSGSGSGTDFTLKISRVEAEDVGVYYCSQNTHVPPTFGQGTKVEIERTVAAPSVFIFPPSDEQLKSGTASVVCLLNNFYPREAKVQWKVDNALQSGNSQESVTEQDSKDSTYSLSSTLTLSKADYEKHKVYACEVTHQGLSSPVTKSFNRGEC
notes: both H chains altered; also called Ho Ab K334_01G
B22: GpH7-B3 variant S324_02A/GpL16-k0 (antibody, human IgG1, kappa)
heavy: not shown
light: DIVMTQSPLSLPVTPGEPASISCQASESLVHSNRNTYLHWYLQKPGQSPQLLIYKVSNRFSGVPDRFSGSGSGTDFTLKISRVEAEDVGVYYCSQNTHVPPTFGQGTKVEIERTVAAPSVFIFPPSDEQLKSGTASVVCLLNNFYPREAKVQWKVDNALQSGNSQESVTEQDSKDSTYSLSSTLTLSKADYEKHKVYACEVTHQGLSSPVTKSFNRGEC
notes: both H chains altered; also called Ho Ab S324_02A

For this experiment, the target named is FcγRIIIa extracellular domain with C-terminal His tag (human, UniProt P08637 17-208). In words: SPR (Biacore), both H chains altered; HoCon Ab GpH7-B3/GpL16-k0 = 100. (SPR reads the build-up and loss of mass on a sensor chip optically.)
Sequence of FcγRIIIa extracellular domain with C-terminal His tag (P08637 17-208): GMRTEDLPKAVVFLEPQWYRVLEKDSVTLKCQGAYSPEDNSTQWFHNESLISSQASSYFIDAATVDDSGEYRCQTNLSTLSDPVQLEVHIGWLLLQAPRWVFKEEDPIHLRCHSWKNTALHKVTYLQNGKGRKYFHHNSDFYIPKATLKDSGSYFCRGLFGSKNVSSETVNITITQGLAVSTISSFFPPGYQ
Turning to B1, the Ho/Con_3a was 88%.
For the molecule B2, the Ho/Con_3a worked out at 91.8%.
Turning to B3, the Ho/Con_3a is 99.5%.
B4: the Ho/Con_3a is 118%.
B5 yielded a Ho/Con_3a of 104%.
B6 gave a Ho/Con_3a of 110%.
Next, B7: 109%.
Turning to B8, the Ho/Con_3a turned out to be 101%.
Next, B9: 97.7%; B10: 114%; B11: 97.6%.
To B12 belongs 99%; to B13, 97.2%; to B14, 95.6%.
For B15, the Ho/Con_3a came out at 90.5%.
Next, B16: 134%; B17: 87.8%.
Molecule B18 displayed a Ho/Con_3a of 91.5%.
Next, B19: 104%.
For the molecule B20, the Ho/Con_3a came out at 107%.
Consider B21, for which the Ho/Con_3a turned out to be 104%.
B22: the Ho/Con_3a was 99.8%.
